We go through two molecules from article PMC4751602.

The target in one data set is T1, hnRNP-Q1 RGG box peptide (UniProt O60506-3 406-561).
T1 sequence: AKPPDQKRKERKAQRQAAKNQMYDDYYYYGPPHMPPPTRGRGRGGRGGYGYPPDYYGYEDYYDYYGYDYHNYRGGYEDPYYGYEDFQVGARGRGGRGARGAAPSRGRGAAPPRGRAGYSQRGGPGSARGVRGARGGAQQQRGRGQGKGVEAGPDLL
The data set can be described thus: fluorescence spectroscopy.

Another data set concerns the target T2, GST-hnRNP-Q1 (UniProt O60506-3 1-562).
T2 sequence: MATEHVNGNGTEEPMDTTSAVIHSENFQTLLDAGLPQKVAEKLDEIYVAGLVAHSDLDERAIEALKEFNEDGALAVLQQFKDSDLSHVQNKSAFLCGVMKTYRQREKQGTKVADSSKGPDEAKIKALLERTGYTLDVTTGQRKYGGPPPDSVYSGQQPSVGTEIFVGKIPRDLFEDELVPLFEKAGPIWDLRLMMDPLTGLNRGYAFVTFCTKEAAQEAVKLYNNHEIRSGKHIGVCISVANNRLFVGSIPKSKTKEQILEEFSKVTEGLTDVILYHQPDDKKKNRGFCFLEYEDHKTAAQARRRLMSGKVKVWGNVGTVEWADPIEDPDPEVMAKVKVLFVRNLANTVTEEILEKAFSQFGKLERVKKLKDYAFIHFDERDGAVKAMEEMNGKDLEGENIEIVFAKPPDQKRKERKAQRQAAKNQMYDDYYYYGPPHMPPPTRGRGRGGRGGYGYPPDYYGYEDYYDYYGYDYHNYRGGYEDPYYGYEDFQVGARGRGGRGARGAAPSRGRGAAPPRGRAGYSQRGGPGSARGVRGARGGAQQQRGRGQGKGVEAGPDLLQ
The data set can be described thus: biotin pull-down, GST immunoblot. Background: Immunoblotting shows a protein as a band on a membrane.

B1: 2AP Gap-43 5'GQ RNA (structured_RNA)
RNA: GGGAGGGAGGGAGGGAGAGC
modifications: 2-aminopurine replaces A4
By Kd is commonly meant a measure of binding affinity in units of concentration. With B1, the Kd in the data set with hnRNP-Q1 RGG box peptide came out at 131 ± 14 nM.

B2: Gap-43 5'GQ (5' biotin) (structured_RNA)
RNA: GGGAGGGAGGGAGGGA
As to B2, in the data set with GST-hnRNP-Q1, the binding result is listed as “binds”.
